Here are results for 15 substances from paper PMC3317979.

Where only a bound is given, the exact number is not on record here.

The test system of data set [1] is 933W repressor (cI) (bacteriophage 933W (lambdoid prophage of E. coli O157:H7 EDL933)). The data set is described as follows: EMSA.
In data set [2] the test system is 933W repressor K46A (bacteriophage 933W (lambdoid prophage of E. coli O157:H7 EDL933)). The data set can be described thus: EMSA. (Mobility shift assays separate free from complexed probe on a gel.)
Data set [3] deals with 933W repressor S41A (bacteriophage 933W (lambdoid prophage of E. coli O157:H7 EDL933)). The data set can be described thus: EMSA.
In data set [4] the test system is 933W repressor (cI) (bacteriophage 933W (lambdoid prophage of E. coli O157:H7 EDL933)). The data set can be described thus: EMSA (direct and competition).
Data set [5] shares this test system. The data set can be described thus: competition EMSA.
[6] abbreviates: scale: fold affinity vs S41A on consensus.

With 933W OR1, in data set [1], the binding signal (fold higher affinity than consensus) stood at 10.

One may read the Kd as a measure of binding affinity in units of concentration. With 933W consensus operator, the equilibrium dissociation constant (Kd) in data set [2] turned out to be 6.1 µM; in data set [4], 0.0048 µM. The substance also came in with a binding signal in data set [3] (scale: fold lower affinity than wild-type repressor) of over 10.

The substance consensus 1A (symmetric C-G to A-T) showed a binding signal (fold change in affinity vs consensus) in data set [5] of under 2.

In the case of consensus 2A (symmetric, G-C to A-T), the binding signal in data set [3] (setting [6]) worked out at 1. In data set [5], the binding signal (fold lower affinity than consensus) was over 6.

As for consensus 2T (symmetric, G-C to T-A), the binding signal in data set [3] (setting [6]) was 1. In data set [5], this substance registered a binding signal (fold lower affinity than consensus) of over 6.

For the substance consensus 3C (symmetric A-T to C-G), the binding signal (fold lower affinity than consensus) in data set [5] is over 6.

As for consensus 3G (symmetric A-T to G-C), in data set [5], the binding signal (fold lower affinity than consensus) turned out to be 2.

On to consensus 3T (symmetric A-T to T-A), for which, in data set [5], the binding signal (fold higher affinity than consensus) was over 3.

consensus 4 G-5meC in one half-site registered a binding signal (fold affinity vs consensus (identical)) in data set [1] (5-methylcytosine paired with G at position 4) of 1.

In turn, consensus 4 G-C in one half-site returned a binding signal (fold lower affinity than consensus) in data set [1] of over 5.

In turn, consensus 5 C-C7G in one half-site yielded a binding signal (fold lower affinity than consensus) in data set [1] (7-deazaguanine replaces G at position 5) of over 5.

consensus 6C (symmetric T-A to C-G) registered a binding signal (fold higher affinity than consensus) in data set [5] of over 2.5.

The substance consensus 7'A (C-G to A-T at 7' only) came in with a binding signal (fold higher affinity than consensus) in data set [5] of over 4.

Take consensus 8G (central A-T to G-C): the binding signal (fold lower affinity than consensus) in data set [5] amounted to 3.

Turning to nonspecific DNA (NS), the Kd in data set [2] and in data set [5] was 6.1 µM each time.
